# Values of other authors, collected in paper PMC3902607.
# Molecular target: RXFP2 (Homo sapiens) (UniProt Q8WXD0)
# Chain of UniProt Q8WXD0 (Q8WXD0 whole entry): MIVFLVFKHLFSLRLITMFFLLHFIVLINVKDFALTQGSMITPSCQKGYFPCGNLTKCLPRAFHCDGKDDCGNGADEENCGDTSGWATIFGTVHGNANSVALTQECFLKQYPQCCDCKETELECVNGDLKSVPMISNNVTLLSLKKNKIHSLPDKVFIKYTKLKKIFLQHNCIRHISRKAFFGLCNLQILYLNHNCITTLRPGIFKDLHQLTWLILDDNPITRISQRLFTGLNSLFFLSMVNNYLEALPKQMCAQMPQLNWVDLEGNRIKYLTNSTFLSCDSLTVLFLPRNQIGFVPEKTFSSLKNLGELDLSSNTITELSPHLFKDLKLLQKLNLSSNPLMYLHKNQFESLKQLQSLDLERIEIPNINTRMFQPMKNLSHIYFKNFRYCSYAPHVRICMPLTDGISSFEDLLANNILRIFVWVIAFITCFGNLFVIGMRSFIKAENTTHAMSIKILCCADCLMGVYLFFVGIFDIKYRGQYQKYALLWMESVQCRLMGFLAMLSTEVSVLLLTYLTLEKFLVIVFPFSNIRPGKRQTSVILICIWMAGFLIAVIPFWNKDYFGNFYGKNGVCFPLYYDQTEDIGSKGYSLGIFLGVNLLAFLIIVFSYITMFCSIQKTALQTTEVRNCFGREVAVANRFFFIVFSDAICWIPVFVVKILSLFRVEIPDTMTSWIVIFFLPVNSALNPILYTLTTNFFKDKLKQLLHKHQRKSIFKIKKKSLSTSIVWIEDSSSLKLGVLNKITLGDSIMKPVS
substance,measurement,value
INSL3 (from UniProt P51460),Kd,< 1 nM
